# From US20200087363A1 (IMMATICS BIOTECHNOLOGIES, published 2020)
# Molecular target: T1, HLA-B*44:05 (human)
# T1 construct: also called peptide-receptive MHC class I molecule
# Experiment: UV peptide exchange, anti-b2m ELISA
# Procedure, shortened: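 Peptide-receptive HLA-B*44:05 monomers after UV-induced exchange were diluted 100-fold and captured on streptavidin-coated plates for 1 h at 37 °C. Bound complexes were detected with 2 µg/ml HRP-anti-β2m (1 h, 37 °C) and TMB, read at 450 nm. β2m signal reflects peptide-stabilized complex yield.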
row,peptide exchange yield [%],Binder
1,50 to 75,EENIVAIGI
2,20 to 50,ELVHMINW
3,50 to 75,TEGGTQKTF
4,50 to 75,QTLKAMVQAW
5,> 75,SECVKSLSF
6,20 to 50,YQENPRAAW
7,> 75,AELFLTKSF
8,> 75,GEARGDQVDW
9,> 75,TELADLDAAW
10,50 to 75,TEQSLYYRQW
11,50 to 75,AETSYVKVLEY
12,50 to 75,EESLLSSWDF
13,20 to 50,GEKATMQNL
14,50 to 75,EEIFKTLNY
15,50 to 75,SEAGLTANQY
16,50 to 75,SEENTGKTY

# The remaining lines, values behind:
row,Binder,peptide exchange yield [%]
1,MDELEEGESY,10 to 20
2,AAFEDAQGHIW,> 75
3,SVISDSPRSW,50 to 75
4,EESLLSSW,50 to 75
5,SLAELIAKDW,20 to 50
6,SEIDEKVTDL,50 to 75
7,KEPSQSCIAQY,10 to 20
8,SEESAGPLL,50 to 75
9,QETNKVETY,50 to 75
10,SEYPTKNYV,20 to 50
11,KEFYPVKEF,20 to 50
